Laboratory results as given in patent publication US7847064B2, “Methods and compositions for regulating gene expression in plant cells” (Donald Danforth Plant Science Center, priority 2004, dated 2010).

B1: A5A5GE: (2 × SEQ ID NO: 101 (A5)) + SEQ ID NO: 103 (GE) (protein, listed as Oryza sp.)
chain: EILSLPEDLDLCAAGGGDGPSLSDENDEEEILSLPEDLDLCAAGGGDGPSLSDENDEEKLLSSIEQACDICRLKKLKCSKEKPKCAKCLKNNWECRYSPKTKRSPLTRAHLTEVESRLERLEQLFLLIFPREDLDMILKMDSLQDIKALLTGLFVQDNVNKDAVTDRLASVETDMPLTLRQHRISATSSSEESSNKGQRQLTVSGGSRRISWPECVVPETQCAMKRKEKKAQKEKDKLPVSTTTVDDHMPPIMQCEPPPPEAARIHEVVPRFLSDKLLETNRQKNIPQLTANQQFLIARLIWYQDGYEQPSDEDLKRITQTWQQADDENEESDTPFRQITEMTILTVQLIVEFAKGLPGFAKISQPDQITLLKAFSSEVMMLRVARRYDAASDSVLFANNQAYTRDNYRKAGMAYVIEDLLHFCRCMYSMALDNIHYALLTAVVIFSDRPGLEQPQLVEEIQRYYLNTLRIYILNQLSGSARSSVIYGKILSILSELRTLGMQNSNMCISLKLKNRKLPPFLEEIWDVADMSHTQPPPILESPTNL
modifications: A combination of the Gal4 protein and Ecdysone receptor
B2: RF2b: bZIP transcription factor isolated through interaction with RF2a, SEQ ID NO:5 (protein)
chain: MQEPKHTDPAAMRGAHHRRARSEVAFRLPDDLDLGGGGAGAFDEIGSEDDLFSTFMDIEKISSGPAAAGGSDRDRAAETSSPPRPKHRHSSSVDGSGFFAAARKDAAASLAEVMEAKKAMTPEQLSDLAAIDPKRAKRILANRQSAARSKERKARYITELERKVQTLQTEATTLSAQLTLFQRDTTGLSAENAELKIRLQAMEQQAQLRDALNDALKQELERLKLATGEMTNSNETYSMGLQHVPYNTPFFPLAQHNAARQNGGTQLPPQFQPPRPNVPNHMLSHPNGLQDIMQQDPLGRLQGLDISKGPLVVKSESSSISASESSSTF
modifications: This sequence was artificially derived and/or created by the inventors.
B3: RF2a: rice bZIP transcription factor, SEQ ID NO:4 (protein)
chain: MNREKSPIPGDGGDGLPPQATRRAGPPAAAAAAEYDISRMPDFPTRNPGHRRAHSEILSLPEDLDLCAAGGGDGPSLSDENDEELFSMFLDVEKLNSTCGASSEAEAESSSAAAHGARPKHQHSLSMDESMSIKAEELVGASPGTEGMSSAEAKKAVSAVKLAELALVDPKRAKRIWANRQSAARSKERKMRYIAELERKVQTLQTEATTLSAQLALLQRDTSGLTTENSELKLRLQTMEQQVHLQDALNDTLKSEVQRLKVATGQMANGGGMMMNFGGMPHQFGGNQQMFQNNQAMQSMLAAHQLQQLQLHPQAQQQQVLHPQHQQQQPLHPLQAQQLQQAARDLKMKSPMGGQSQWGDGKSGSSGN
modifications: This sequence was artificially derived and/or created by the inventors.
B4: AGE: SEQ ID NO: 6 (A) + SEQ ID NO: 103 (GE) (protein)
chain: MGHRRAHSEILSLPEDLDLCAAGGGDGPSLSDENDEELFSMFLDVEKLNSTCGASSEAEAESSSAAAKLLSSIEQACDICRLKKLKCSKEKPKCAKCLKNNWECRYSPKTKRSPLTRAHLTEVESRLERLEQLFLLIFPREDLDMILKMDSLQDIKALLTGLFVQDNVNKDAVTDRLASVETDMPLTLRQHRISATSSSEESSNKGQRQLTVSGGSRRISWPECVVPETQCAMKRKEKKAQKEKDKLPVSTTTVDDHMPPIMQCEPPPPEAARIHEVVPRFLSDKLLETNRQKNIPQLTANQQFLIARLIWYQDGYEQPSDEDLKRITQTWQQADDENEESDTPFRQITEMTILTVQLIVEFAKGLPGFAKISQPDQITLLKAFSSEVMMLRVARRYDAASDSVLFANNQAYTRDNYRKAGMAYVIEDLLHFCRCMYSMALDNIHYALLTAVVIFSDRPGLEQPQLVEEIQRYYLNTLRIYILNQLSGSARSSVIYGKILSILSELRTLGMQNSNMCISLKLKNRKLPPFLEEIWDVADMSHTQPPPILESPTNL
modifications: This sequence was artificially derived and/or created by the inventors.; A combination of the Gal4 protein and Ecdysone receptor

What was measured:
[1] = test system: 5XG-35S:GUS; experiment: MOF induced GUS activity in Arabidopsis plants with VGE, AGE or A5A5GE; format: in vivo, Arabidopsis thaliana; settings: for activation of GUS expression, T2 generation plants: induced with MOF, plant lines #11, #11, #18; for activation of GUS expression, T1 generation plants: soil drench 1:10,000 dilution of MOF (61.3 μM) for 60 hours
Experimental: In this Example, Arabidopsis thaliana Col-0 plants were transformed with A. tumefaciens bacterium (strain GV3101) containing effector constructs comprising the CsVMV promoter operably linked to a nucleic acid sequence (SEQ ID NO:104) encoding the GE protein, plus (i) a nucleic acid sequence encoding the VP16 acidic activation domain of the herpes simplex virus, (ii) a sequence (SEQ ID NO:9) encoding the full RF2a acidic domain, or (iii) a sequence (2×SEQ ID NO:102) encoding a dimer of the A5 minimal acidic domain of RF2a (“A5A5”). The foregoing VP16 acidic domain-, RF2a acidic domain-, and A5A5 domain-encoding sequences were oriented to express such domains at the N-terminal of the GE protein. FIG. 28 refers to these constructs as VGE, AGE, and A5A5GE, respectively.
The foregoing effector constructs were prepared using standard DNA cloning and PCR procedures, and plasmids containing nucleic acid sequences encoding the VP16 acidic domain, the full length RF2a acidic domain (SEQ ID NO:6), the A5A5 domain (2×SEQ ID NO:101), and the GE domain (SEQ ID NO:103). Those of ordinary skill in the art will appreciate, however, that such effector sequences (and derivatives thereof) may also be constructed synthetically using standard procedures. The reporter construct described in Example 17 above, 5XG-35S:GUS, was used in this Example.
Next, plasmids containing the effector and reporter constructs described above were transferred by electroporation into A. tumefaciens strain GV3101. Agrobacterium isolates that contained the respective plasmids were used to transform A. thaliana Col-0 using a standard floral dip method (Clough and Bent, 1998). Seeds from the T1 generation were collected and germinated in Murashige and Skoog medium (Murashige and Skoog, 1962) containing a selective component (hygromycin B (30 μg/mL).
The seedlings that survived the selection were grown in soil in a growth chamber and allowed to self-fertilize. Next, T2 generation seeds were collected and germinated in Murashige and Skoog medium, which contained hygromycin B (30 μg/mL). The seedlings that survived the selection in a 3:1 segregation pattern were grown in soil in a growth chamber (under 12 hours of light/12 hours of dark per day, at 22° C., 50% humidity).
Analysis of T1 Generation Plants—In this Example, 22 T1 plants were analyzed for methoxyfenozide (MOF) induced gene expression. […] The supernatants were analyzed for GUS enzymatic activity as described in Example 16 above.
Analysis of T2 Generation Plants—A total of 16 different plants from a T2 generation plant line (having a segregation of the reporter/effector constructs of 3:1), wherein each plant contained a VGE, AGE, or A5A5GE effector construct, were induced with MOF and analyzed for GUS activity (as described above). […]

[2] = test system: E(Box IIm2) promoter; experiment: BY-2 protoplast transient assay, reporter pE(Box IIm2)::GUS with RF2a/RF2b effectors; format: cell-based, tobacco; settings: co-transfection, BY-2 protoplasts, normalized against GFP
From the text: (§1) To illustrate the biological relevance of the differences in the binding affinities described above, the pE::GUS, pE(Box IIm1)::GUS and pE(Box IIm2)::GUS constructs were used as reporters in BY-2 protoplast transient assays. In these assays, CaMV 35S::RF2a, CsVMV::RF2b and CaMV 35S::RF2a/CsVMV::RF2b were used as effectors. All results were normalized against the GFP internal control. The relative GUS activities of different sets of transfection assays are shown in FIG. 9 for the Box IIm1 element, and FIG. 10 for the Box IIm2 element.

[3] = test system: E(Box IIm1) promoter; experiment: BY-2 protoplast transient assay, reporter pE(Box IIm1)::GUS with RF2a/RF2b effectors; format: cell-based, tobacco; settings: co-transfection, BY-2 protoplasts
From the text: as §1

[4] = test system: E fragment of the RTBV promoter; experiment: Co-transfection of E::GUS with RF2a and/or RF2b constructs in BY-2 protoplasts; format: cell-based, tobacco
From the text: Nevertheless, the E fragment may be further stimulated by co-transfecting the BY-2 protoplasts with constructs that encode the RF2a and/or RF2b transcription factors. In this Example, the E fragment was activated in tobacco BY-2 protoplasts by co-transfection of E::GUS with CsVMV::RF2b, CaMV 35S::RF2a and CaMV 35S::RF2a/CsVMV::RF2b using methods well-known in the art.

[5] = test system: Box II, Box IIm1 and Box IIm2 elements; experiment: Surface Plasmon Resonance binding (BIAcore 2000); settings: for DNA binding behavior (association and dissociation): 1:1 binding with a mass transfer model
Experimental: To compare the binding affinities of RF2a and RF2b with the Box II element and its mutants, real time Surface Plasmon Resonance (“SPR”) measurements were conducted using a BIAcore 2000 instrument. The binding affinities of RF2a and RF2b to these DNA targets were measured on chips on which biotin labeled-Box II, -Box IIm1 and -Box IIm2 elements were immobilized.
The association and de-association constants were determined using BIAevaluation 3.1 software—using 1:1 binding with a mass transfer model. […] Furthermore, the DNA binding behavior of RF2a and RF2b are quite different from each other. […] The differences in the affinity of RF2a to the Box II element and its mutants, however, are not as dramatic as the differences of RF2b, while the relative order of affinities to the different target elements is the same for both proteins (FIG. 8).

[6] = test system: transgenic rice and tobacco plants; settings: Yin et al., 1997; Petruccelli et al., 2001; cited from earlier work
[7] = test system: Nicotiana tabacum cv. Xanthi NN; experiment: Phenotype of transgenic tobacco plants overexpressing RF2a or RF2a mutants; format: in vivo; settings: CaMV 35S promoter driven, T1 generation, greenhouse
From the text: (Yin et al., 1997; Petruccelli et al., 2001). […] Fifteen or more independent transgenic tobacco lines were developed with the constructs described below through Agrobacterium-mediated transformation.
Plasmids for Agrobacterium-mediated transformation—The fusion genes described above relating to the plant expression constructs comprising RF2a deletion mutants were released from pMON999-derived plasmids using NotI (blunted) and cloned into the binary vector pGA-E::GUS (Petruccelli et al., 2001) using the blunt HindIII site (downstream of a CaMV 35S promoter sequence). The final plasmids were named pGA-E::GUS/P-35S::ΔP, pGA-E::GUS/P-35S::ΔQ, pGA-E::GUS/P-35S::ΔPΔA and pGA-E::GUS/P-35S::ΔPΔQ. A plasmid encoding full-length RF2a, p35S::RF2a, was also constructed using the methods described herein.
Tobacco transformation—the plasmids described above were introduced into Agrobacterium tumefaciens strain LBA4404 and used for tobacco transformation. Leaf discs from Nicotiana tabacum cv. Xanthi NN were transformed with the various plasmids following the protocol of Horsch et al. (1988). At least 15 independent transgenic lines were produced with each gene construct. Transgenic plants were self-fertilized, and T1 seeds were collected. The T1 seeds were germinated on Murashige and Skoog medium (Murashige and Skoog, 1962) with kanamycin (100 mg/L) selection, and Kan^r seedlings were grown in a greenhouse for observation.
The phenotype caused by 35S::RF2a-ΔPΔA was similar to, but less severe than, the phenotype caused by 35S::RF2a-3Δ. […] (FIG. 19(C)).

| Molecule | activation of GUS expression, T2 generation plants [1] | activation of GUS expression, T1 generation plants [1] | increase of promoter activity of E(Box IIm2) [2] | activity of the E(Box IIm1) promoter compared with the E wild type promoter [3] | increase of promoter activity of E(Box IIm1) ([3]; normalized against GFP) | activation of the E fragment by over-expression [4] | DNA binding behavior (association and dissociation) [5] | appearance and reproduction of overexpressing plants [6] | phenotype of transgenic tobacco plants [7] | binding affinities to the Box II, Box IIm1 and Box IIm2 elements ([5]; compared to RF2b, biotin labeled elements immobilized on chips) |
| --- | --- | --- | --- | --- | --- | --- | --- | --- | --- | --- |
| B1 | activated GUS expression (in the T2 generation plants) in the presence of the MOF inducer as strong as VP16 | activated GUS expression in the presence of the MOF inducer as strong as VP16 | – | – | – | – | – | – | – | – |
| B2 | – | – | about 5.8 fold | as high as the expression of the E wild type promoter in BY-2 protoplasts | about 7 fold | activated above a strong background expression | binds slowly to the DNA target and releases from the target relatively quickly | – | – | – |
| B3 | – | – | – | – | – | activated above a strong background expression | bind rapidly to the DNA target and slowly dissociates from the target | normal in appearance and reproduction | did not exhibit abnormal phenotypes | relatively higher binding affinities |
| B4 | activated GUS expression (in the T2 generation plants) in the presence of the MOF inducer as strong as VP16 | activated GUS expression in the presence of the MOF inducer as strong as VP16 | – | – | – | – | – | – | – | – |
